Measurements from patent US20260014232A1, “Pharmaceutical Composition of GLP-1 and GIP Receptor Dual Agonist and Use Thereof” (Jiangsu Hengrui Pharmaceuticals Co., Ltd., priority 2021, published 2026).
Starred links: 1 amine or outer side, 2 acyl side, 3 side chain; linkers in the order of their positions; H or OH if unused. Non-standard residues stand in square brackets, D forms with d. Groups on a side chain read outwards from the residue. No end group written: not given here. *: point of attachment. Arachidoyl = CCCCCCCCCCCCCCCCCCCC(=O)*; γGlu = O=C(O)[C@H](CCC(=O)[*:2])N[*:1]; AEEA = NCCOCCOCC(=O)O; Aib = CC(C)(N)C(=O)O

T1: human glucose-dependent insulinotropic polypeptide receptor (GIPR) (human, UniProt P48546 22-466)
T1 sequence (looked up): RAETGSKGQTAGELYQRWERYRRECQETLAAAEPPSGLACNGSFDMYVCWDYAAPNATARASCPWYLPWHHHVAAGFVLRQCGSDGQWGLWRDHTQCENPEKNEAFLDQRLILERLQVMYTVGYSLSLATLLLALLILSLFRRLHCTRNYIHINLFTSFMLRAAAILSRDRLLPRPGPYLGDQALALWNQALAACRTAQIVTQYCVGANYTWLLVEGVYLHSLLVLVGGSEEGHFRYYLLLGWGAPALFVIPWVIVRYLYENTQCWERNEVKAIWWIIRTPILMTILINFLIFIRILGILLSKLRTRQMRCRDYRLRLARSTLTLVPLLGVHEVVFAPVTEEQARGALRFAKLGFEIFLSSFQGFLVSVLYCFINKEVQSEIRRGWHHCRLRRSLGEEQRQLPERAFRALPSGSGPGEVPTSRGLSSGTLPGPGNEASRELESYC

B1: compound 10# (peptide)
peptide: Y[Aib]EGTFTSDYSIYLEK([AEEA-AEEA-γGlu-Arachidoyl])IAAQEFINWLIAGGPSSGAPPPS-NH2
modifications: N-terminus assumed
SMILES: CCCCCCCCCCCCCCCCCCCC(=O)N[C@@H](CCC(=O)NCCOCCOCC(=O)NCCOCCOCC(=O)NCCCC[C@H](NC(=O)[C@H](CCC(=O)O)NC(=O)[C@H](CC(C)C)NC(=O)[C@H](Cc1ccc(O)cc1)NC(=O)[C@@H](NC(=O)[C@H](CO)NC(=O)[C@H](Cc1ccc(O)cc1)NC(=O)[C@H](CC(=O)O)NC(=O)[C@H](CO)NC(=O)[C@@H](NC(=O)[C@H](Cc1ccccc1)NC(=O)[C@@H](NC(=O)CNC(=O)[C@H](CCC(=O)O)NC(=O)C(C)(C)NC(=O)[C@@H](N)Cc1ccc(O)cc1)[C@@H](C)O)[C@@H](C)O)[C@@H](C)CC)C(=O)N[C@H](C(=O)N[C@@H](C)C(=O)N[C@@H](C)C(=O)N[C@@H](CCC(N)=O)C(=O)N[C@@H](CCC(=O)O)C(=O)N[C@@H](Cc1ccccc1)C(=O)N[C@H](C(=O)N[C@@H](CC(N)=O)C(=O)N[C@@H](Cc1c[nH]c2ccccc12)C(=O)N[C@@H](CC(C)C)C(=O)N[C@H](C(=O)N[C@@H](C)C(=O)NCC(=O)NCC(=O)N1CCC[C@H]1C(=O)N[C@@H](CO)C(=O)N[C@@H](CO)C(=O)NCC(=O)N[C@@H](C)C(=O)N1CCC[C@H]1C(=O)N1CCC[C@H]1C(=O)N1CCC[C@H]1C(=O)N[C@@H](CO)C(N)=O)[C@@H](C)CC)[C@@H](C)CC)[C@@H](C)CC)C(=O)O
B2: compound 12# (peptide)
peptide: Y[Aib]EGTFTSDYSIYK([AEEA-AEEA-γGlu-Arachidoyl])EKIAAQEFVNWLIAGGPSSGAPPPS-NH2
modifications: N-terminus assumed
SMILES: CCCCCCCCCCCCCCCCCCCC(=O)N[C@@H](CCC(=O)NCCOCCOCC(=O)NCCOCCOCC(=O)NCCCC[C@H](NC(=O)[C@H](Cc1ccc(O)cc1)NC(=O)[C@@H](NC(=O)[C@H](CO)NC(=O)[C@H](Cc1ccc(O)cc1)NC(=O)[C@H](CC(=O)O)NC(=O)[C@H](CO)NC(=O)[C@@H](NC(=O)[C@H](Cc1ccccc1)NC(=O)[C@@H](NC(=O)CNC(=O)[C@H](CCC(=O)O)NC(=O)C(C)(C)NC(=O)[C@@H](N)Cc1ccc(O)cc1)[C@@H](C)O)[C@@H](C)O)[C@@H](C)CC)C(=O)N[C@@H](CCC(=O)O)C(=O)N[C@@H](CCCCN)C(=O)N[C@H](C(=O)N[C@@H](C)C(=O)N[C@@H](C)C(=O)N[C@@H](CCC(N)=O)C(=O)N[C@@H](CCC(=O)O)C(=O)N[C@@H](Cc1ccccc1)C(=O)N[C@H](C(=O)N[C@@H](CC(N)=O)C(=O)N[C@@H](Cc1c[nH]c2ccccc12)C(=O)N[C@@H](CC(C)C)C(=O)N[C@H](C(=O)N[C@@H](C)C(=O)NCC(=O)NCC(=O)N1CCC[C@H]1C(=O)N[C@@H](CO)C(=O)N[C@@H](CO)C(=O)NCC(=O)N[C@@H](C)C(=O)N1CCC[C@H]1C(=O)N1CCC[C@H]1C(=O)N1CCC[C@H]1C(=O)N[C@@H](CO)C(N)=O)[C@@H](C)CC)C(C)C)[C@@H](C)CC)C(=O)O

Molecular target: human glucagon-like peptide-1 receptor (GLP-1R) (human, UniProt P43220 24-463)
Experiment: cell-based or functional assay

| Binder | Activity against human GLP-1R (EC50 nM); cAMP HTRF, CHO-K1/GLP-1R/CRE-luc cells [nM] |
| --- | --- |
| Y[Aib]EGTFTSDYSIYLEK([AEEA-AEEA-γGlu-Arachidoyl])IAAQEFVNWLIAGGPSSGAPPPS-NH2 [compound 9#] | 0.049 |
| B1 | 0.065 |
| B2 | 0.03 |

Molecular target: T1, human glucose-dependent insulinotropic …
Experiment: cell-based or functional assay

| Binder | Activity against human GIPR (EC50 nM); cAMP HTRF, CHO-K1 cells overexpressing hGIP receptor [nM] |
| --- | --- |
| Y[Aib]EGTFTSDYSIYLEK([AEEA-AEEA-γGlu-Arachidoyl])IAAQEFVNWLIAGGPSSGAPPPS-NH2 [compound 9#] | 0.04 |
| B1 | 0.056 |
| B2 | 0.17 |
